Target: human plasminogen (human)
Assay: SPR; BIAcore T100 at 25°C; plasminogen amine-coupled to a CM-5 chip (5.0 ng/mm^2); dispersin at 2.5–120 μM in HBS-P (10 mM HEPES pH 7.4, 150 mM NaCl, 0.005% P20) at 30 μL/min; 1:1 model

recombinant dispersin (mature dispersin of enteroaggregative Escherichia coli strain 17-2) (from UniProt P43464 1-265) (natural protein)
Kd: 0.282 µM
koff: 0.0016 s⁻¹
kon: 5680 M⁻¹ s⁻¹
